Laboratory results: US20260209332A1 (SORRISO PHARMACEUTICALS, published 2026)

B1: TNF-alpha inhibitor (anti-TNF-alpha single domain antibody, parent monomer) (VHH)
VHH: DVQLVESGGGLVQPGGSLKLSCAASGFDFSSHWMYWVRQAPGKELEWLSEINTNGLITHYGDSVKGRFTVSRNNAANKMYLELTRLEPEDTALYYCARNQHGLNKGQGTQVTVSS
notes: Produced and purified from yeast; also called ID-38F
B2: liberated anti-TNF-alpha monomer arm of TNF-alpha/IL-23 dual inhibitor (VHH)
VHH: B1 VHH
notes: Cleavage product; carries the remnant of the linker at its C-terminus; also called liberated-TNF
B3: liberated anti-IL-23 monomer arm of TNF-alpha/IL-23 dual inhibitor (VHH)
VHH: EVQLVESGGGQVQPGGSLSLSCESSVSIWSFKVMGWFRQVPGKQRELVATITTGGSPDYSDSVKGRFTISRDYDKRTLYLQMNSLKPEDTAVYYCAGRLWAHITSSGHDVWGQGTQVTVSS
notes: Cleavage product; carries the remnant of the linker at its N-terminus; also called liberated-IL-23
B4: IL-23 inhibitor (anti-IL-23 single domain antibody, parent monomer) (VHH)
VHH: B3 VHH
notes: Produced in yeast; also called IL-23: D1E ID-L253T
B5: TNF-alpha/IL-23 dual inhibitor (bispecific anti-TNF-alpha/anti-IL-23 domain antibody) (bispecific antibody)
chain: DVQLVESGGGLVQPGGSLKLSCAASGFDFSSHWMYWVRQAPGKELEWLSEINTNGLITHYGDSVKGRFTVSRNNAANKMYLELTRLEPEDTALYYCARNQHGLNKGQGTQVTVSSGGGGSGGGGSKGGGGSGGGGSEVQLVESGGGQVQPGGSLSLSCESSVSIWSFKVMGWFRQVPGKQRELVATITTGGSPDYSDSVKGRFTISRDYDKRTLYLQMNSLKPEDTAVYYCAGRLWAHITSSGHDVWGQGTQVTVSS
notes: Produced and purified from yeast; also called FA1K

Assays:
[1] = molecular target: T1, tumor necrosis factor alpha (TNF-alpha) (UniProt P01375 77-233); assay: competition ELISA on TNF-alpha; competitor: biotinylated adalimumab
T1 construct: Called a homo-trimeric protein in the general description
T1 sequence (P01375 77-233 limits assumed): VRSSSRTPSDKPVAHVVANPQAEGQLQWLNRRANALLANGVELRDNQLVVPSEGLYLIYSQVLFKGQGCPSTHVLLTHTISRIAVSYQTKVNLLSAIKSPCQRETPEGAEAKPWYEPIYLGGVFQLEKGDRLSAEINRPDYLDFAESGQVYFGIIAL

[2] = molecular target: T1, tumor necrosis factor alpha (TNF-alpha); assay: competition ELISA on TNF-alpha; competitor: biotinylated adalimumab; arm liberated by trypsin
[3] = molecular target: T2, interleukin-23 (IL-23) (UniProt Q9NPF7 20-189; P29460 23-328); assay: IL-23/IL-23R interference ELISA; blocked interaction: IL-23 with IL-23 receptor; arm liberated by trypsin
T2 sequence (looked up) 1: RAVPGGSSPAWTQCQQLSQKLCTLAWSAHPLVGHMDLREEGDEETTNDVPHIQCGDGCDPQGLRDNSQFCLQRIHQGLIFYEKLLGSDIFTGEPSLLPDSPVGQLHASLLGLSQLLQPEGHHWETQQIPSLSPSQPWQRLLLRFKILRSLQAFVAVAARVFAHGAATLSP
T2 sequence (looked up) 2: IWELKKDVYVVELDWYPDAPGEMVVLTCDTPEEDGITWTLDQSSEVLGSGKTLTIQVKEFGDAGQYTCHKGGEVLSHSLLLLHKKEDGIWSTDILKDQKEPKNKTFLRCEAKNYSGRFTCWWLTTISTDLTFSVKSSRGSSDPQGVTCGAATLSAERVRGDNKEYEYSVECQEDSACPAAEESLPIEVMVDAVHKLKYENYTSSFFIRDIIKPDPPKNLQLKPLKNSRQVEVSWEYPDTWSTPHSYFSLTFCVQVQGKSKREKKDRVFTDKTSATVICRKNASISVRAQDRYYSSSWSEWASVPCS

[4] = molecular target: T2, interleukin-23 (IL-23); assay: IL-23/IL-23R interference ELISA; blocked interaction: IL-23 with IL-23 receptor

Row | Binder | IC50 (read off the curve) [1] [pM] | IC50 (read off the curve) [4] [pM] | further results
1 | B1 | ~300 |  | 
2 | B2 |  |  | IC50 (read off the curve) [2]: ~200 pM
3 | B3 |  |  | IC50 (read off the curve) [3]: ~100 pM
4 | B4 |  | ~200 | 
5 | B5 | ~200 | ~200 | 
